In US20210032312A1 (Janssen / Centocor, published 2021):

Columns and labels:
[1] = molecular target: T1, human CD8 alpha (CD8A) on primary human CD8+ T cells (human, UniProt P01732 22-235); assay: flow cytometry, human CD8+ T cells, 2 uM FN3
T1 construct: whole, on cells; also called hCD8A
Description: (§1) Binding of the 190 ELISA hits to human and cynomologous monkey primary CD8 T cells was assessed by flow cytometry. The FN3 domain molecules were diluted to 2 μM and 0.2 μM in PBS and incubated with human or cynomologous monkey CD8+ T cells in 96-well format. After 1 hour at 4 C, the cells were washed once with PBS and then resuspended with an anti-FN3 domain antibody (PAB25) solution. Following this incubation, the cells were washed twice with PBS and a PE conjugated secondary antibody and a viability dye were added. Finally, cells were washed and resuspended in PBS for flow cytometric analysis using a BD Canto Instrument. Cells were gating on live cells and median fluorescence intensity of the bound Centyrins (PE channel) was calculated using Cytobank software.

[2] = molecular target: T2, cynomolgus monkey CD8A on primary cynomolgus monkey CD8+ T cells (cynomolgus monkey, UniProt P01732 23-235 (human entry)); assay: flow cytometry, cyno CD8+ T cells, 0.2 uM FN3
T2 construct: also called Cyno CD8alpha
Description: as §1

[3] = molecular target: T1, human CD8 alpha (CD8A) on primary human …; assay: flow cytometry, human CD8+ T cells, 0.2 uM FN3
Description: as §1

[4] = molecular target: T2, cynomolgus monkey CD8A on primary …; assay: flow cytometry, cyno CD8+ T cells, 2 uM FN3
Description: as §1

[5] = molecular target: T3, In house human CD8A-Fc (human, UniProt P01732 22-182, limits assumed); assay: SPR (ProteOn), captured hCD8A-Fc
T3 construct: Captured on goat anti-human Fc on a ProteOn GLC chip; also called hCD8A-Fc; recombinant human CD8 alpha; not shown: linker with flag (and polyhistidine) tag and Fc of human IgG1
Description: Purified anti-CD8A FN3 domains were subjected to off-rate analysis using a Proteon surface plasmon resonance instrument in order to pick clones with the slowest off-rates for further characterization.
The immobilized GAH-Fc IgG densities averaged about 6000 Response Units (Ru) with less than 1% variation among different channels. In house human CD8A-Fc was captured in vertical orientation at 3 different ligand densities, 10, 5, 2.5 μg/ml for 5 minutes at 30 ul/minute flowrate. All FN3 domains were normalized to a 3 μM concentration, and tested for binding in horizontal orientation. All 6 analyte channels were used for FN3 domains to maximize the screening throughput. The dissociation phase was monitored for 15 minutes at a flow rate of 100 μl/min using PBST as running buffer. […] Data analyses were performed using Bio-Rad ProteOn Manager software (version 3.1.0.6). Raw data were double referenced by subtraction of the interspot (empty chip surface, no protein immobilized or captured) signals to correct the non-specific binding of the FN3 domain to the pre-coated GAH-Fc IgG surface, followed by a double correction using empty channel L6 where no hCD8A-Fc was captured. The processed binding data were locally fit to a 1:1 simple Langmuir binding model to extract the koff for each FN3 domain binding to captured hCD8A-Fc.

T2 sequence (P01732 other isoform, or with tags, fused parts or gaps limits assumed): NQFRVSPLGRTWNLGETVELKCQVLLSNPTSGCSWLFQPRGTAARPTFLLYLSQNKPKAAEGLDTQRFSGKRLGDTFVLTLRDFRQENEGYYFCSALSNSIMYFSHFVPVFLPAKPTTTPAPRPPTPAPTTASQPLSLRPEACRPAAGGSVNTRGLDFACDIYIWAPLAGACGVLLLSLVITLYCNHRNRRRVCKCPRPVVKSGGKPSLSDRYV
T3 sequence (P01732 22-182 limits assumed): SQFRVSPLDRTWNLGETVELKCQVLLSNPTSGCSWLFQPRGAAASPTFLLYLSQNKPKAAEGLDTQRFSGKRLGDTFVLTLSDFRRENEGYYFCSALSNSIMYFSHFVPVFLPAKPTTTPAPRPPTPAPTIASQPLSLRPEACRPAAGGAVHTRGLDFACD
T1 sequence (P01732 22-235): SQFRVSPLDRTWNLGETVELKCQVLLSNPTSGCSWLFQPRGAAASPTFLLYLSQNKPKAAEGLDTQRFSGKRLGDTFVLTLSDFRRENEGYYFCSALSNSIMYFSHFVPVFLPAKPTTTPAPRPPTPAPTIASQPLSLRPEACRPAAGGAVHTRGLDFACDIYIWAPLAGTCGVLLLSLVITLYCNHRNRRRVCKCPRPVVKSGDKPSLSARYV

| Binder | Human T-cell Binding 2 uM (MFI) [1] | Cyno T-cell Binding 0.2 uM (MFI) [2] | Human T-cell Binding 0.2 uM (MFI) [3] | Cyno T-cell Binding 2 uM (MFI) [4] | koff [5] |
| --- | --- | --- | --- | --- | --- |
| P283AR9P1362_A3 (designed binder, FN3 domain) LPAPKNLVVSRVTEDSARLSWKRIDSPFDSFLIQYQESEKVGEAIVLTVPGSERSYDLTGLKPGTEYTVSIYGVDVKYDIDSRPISSNPLSAIFTT | 5540 MFI | 3530 MFI | 1400 MFI | 17300 MFI | 0.00153 s⁻¹ |
| P282AR9P1356_A10 (designed binder, FN3 domain) LPAPKNLVVSRVTEDSARLSWHTATNSFDSFLIQYQESEKVGEAIVLTVPGSERSYDLTGLKPGTEYTVSIYGVDVDYNPTGRPVSSNPLSAIFTT | 4260 MFI | 3120 MFI | 2090 MFI | 10600 MFI | 0.000291 s⁻¹ |
| P283AR9P1362_G3 (designed binder, FN3 domain) LPAPKNLVVSRVTEDSARLSWVKRATSFDSFLIQYQESEKVGEAIVLTVPGSERSYDLTGLKPGTEYTVSIYGVDVKWEGNRPVASNPLSAIFTT | 18500 MFI | 9200 MFI | 4310 MFI | 35300 MFI | 9.45e-05 s⁻¹ |
| P283AR9P1362_F8 (designed binder, FN3 domain) LPAPKNLVVSRVTEDSARLSWGYYHGHFDSFLIQYQESEKVGEAIVLTVPGSERSYDLTGLKPGTEYTVSIYGVDVKWEGNRPVASNPLSAIFTT | 9200 MFI | 4570 MFI | 3170 MFI | 23700 MFI | 0.000112 s⁻¹ |
| P282AR9P1356_A4 (designed binder, FN3 domain) LPAPKNLVVSRVTEDSARLSWVKRPNSFDSFLIQYQESEKVGEAIVLTVPGSERSYDLTGLKPGTEYTVSIYGVDVVDYEGRPRWSNPLSAIFTT | 16700 MFI | 8630 MFI | 4380 MFI | 26400 MFI | 8.61e-05 s⁻¹ |
| P283AR9P1362_C7 (designed binder, FN3 domain) LPAPKNLVVSRVTEDSARLSWVKRATSFDSFLIQYQESEKVGEAIVLTVPGSERSYDLTGLKPGTEYTVSIYGVDVRYNEGQPIWSNPLSAIFTT | 11000 MFI | 5520 MFI | 2790 MFI | 19700 MFI | 0.000186 s⁻¹ |
| P282AR9P1356_A6 (designed binder, FN3 domain) LPAPKNLVVSRVTEDSARLSWSKTDSSFDSFLIQYQESEKVGEAIVLTVPGSERSYDLTGLKPGTEYTVSIYGVDVVYIEGNPVFSNPLSAIFTT | 10800 MFI | 5780 MFI | 3440 MFI | 31400 MFI | 9.73e-05 s⁻¹ |
| P282AR9P1356_H1 (designed binder, FN3 domain) LPAPKNLVVSRVTEDSARLSWIPNPSSFDSFLIQYQESEKVGEAIVLTVPGSERSYDLTGLKPGTEYTVSIYGVDVVFDPVGFPSHSNPLSAIFTT | 14700 MFI | 5700 MFI | 3230 MFI | 46300 MFI | 0.000114 s⁻¹ |
| P282AR9P1356_D3 (designed binder, FN3 domain) LPAPKNLVVSRVTEDSARLSWTRHETSFDSFLIQYRESEKVGEAIVLTVPGSERSYDLTGLKPGTEYTVSIYGVVVEYDAAGNPKYSNPLSAIFTT | 5960 MFI | 3360 MFI | 2400 MFI | 13900 MFI | 0.000158 s⁻¹ |
| P282AR9P1356_B9 (designed binder, FN3 domain) LPAPKNLVVSRVTEDSARLSWPEGDRPFFDSFLIQYQESEKVGEAIVLTVPGSERSYDLTGLKPGTEYTVSIYGVDVKWEGNRPVASNPLSAIFTT | 17200 MFI | 5440 MFI | 3670 MFI | 36400 MFI | 0.000295 s⁻¹ |
